Experimental data: publication PMC11370617

Key:
[1] = biological target: Mus musculus arginyltransferase 1 isoform 1 (MmATE1-1), affinity tag cleaved, apo (Mus musculus) (UniProt Q9Z2A5); experiment: SEC-MALS
[2] = biological target: Mus musculus arginyltransferase 1 isoform 1 (MmATE1-1), affinity tag intact, apo (Mus musculus) (UniProt Q9Z2A5); experiment: SEC-MALS

percent of the total protein that is dimeric [1] [%]	percent of the total protein that is dimeric [2] [%]	Substance
< 20	–	Mus musculus arginyltransferase 1 isoform 1 (MmATE1-1), affinity tag cleaved, apo (from UniProt Q9Z2A5 1-516) (enzyme)
–	< 20	Mus musculus arginyltransferase 1 isoform 1 (MmATE1-1), affinity tag intact, apo (from UniProt Q9Z2A5 1-516) (enzyme)
